{"source": "patent US20220281976A1", "about": "(Alector, published 2022)", "binders": {"B1": {"name": "C-14 (antibody, V domains shown)", "VH": "not shown", "VL": "DIQMTQSPSSVSASVGDRVTITCRASQGISSWLAWYQQKPGKAPKLLIYAASSLQSGVPSRFSGSGSGTDFTLTISSLQPEDFATYYCQQANYFPTFGGGTKVEIK", "notes": "human IgG1"}, "B2": {"name": "C-16 (antibody, V domains shown)", "VH": "EVQLVESGGGLVQPGGSLRLSCAASGFTFSSYWMSWVRQAPGKGLEWVANINQDGSEKYYVDSVKGRFTISRDNAKNSLYLQMNSLRAEDTAVYYCAREGSDRHPFDYWGQGTLVTVSS", "VL": "DIQMTQSPSSLSASVGDRVTITCRASQSISSYLNWYQQKPGKAPKLLIYAASSLQSGVPSRFSGSGSGTDFTLTISSLQPEDFATYYCQQAYLVPLTFGGGTKVEIK", "notes": "human IgG1"}, "B3": {"name": "C-28 (antibody, V domains shown)", "VH": "EVQLVESGGGLVQPGGSLRLSCAASGFTFSSYWMSWVRQAPGKGLEWVANINQDGSEKYYVDSVKGRFTISRDNAKNSLYLQMNSLRAEDTAVYYCAREGRRTMNAFDIWGQGTMVTVSS", "VL": "B2 VL with A50G, A91G, L93D, L96I", "notes": "human IgG1"}, "B4": {"name": "C-25 (antibody, V domains shown)", "VH": "EVQLVESGGGLVQPGGSLRLSCAASGFTFSSYWMSWVRQAPGKGLEWVANIKSDGSEKYYVDSVKGRFTISRDNAKNSLYLQMNSLRAEDTAVYYCAREGFRDGINWFDPWGQGTLVTVSS", "VL": "B2 VL with S31R, A91Q, Y92F, V94T, L96I", "notes": "human IgG1"}, "B5": {"name": "C-23 (antibody, V domains shown)", "VH": "QVQLQESGPGLVKPSETLSLTCAVSGYSISSGYYWGWIRQPPGKGLEWIGTIYHSGSTYYNPSLKSRVTISVDTSKNQFSLKLSSVTAADTAVYYCAREVGVVGALPYFDYWGQGTLVTVSS", "VL": "B2 VL with A50G, Y92S, L93S, V94S, L96P", "notes": "human IgG1"}, "B6": {"name": "C-15 (antibody, V domains shown)", "VH": "QVQLVESGGGVVQPGRSLRLSCAASGFTFSSYGMHWVRQAPGKGLEWVAVIWYDGSNKYYADSVKGRFTISRDNSKNTLYLQMNSLRAEDTAVYYCAKGVGYDTGTDMDVWGKGTTVTVSS", "VL": "not shown", "notes": "human IgG1"}, "B7": {"name": "C-22 (antibody, V domains shown)", "VH": "QVQLQESGPGLVKPSETLSLTCAVSGYSISSGYYWGWIRQPPGKGLEWIGSIYHSGNTYYNPSLKSRVTISVDTSKNQFSLKLSSVTAADTAVYYCARDGRYSSSGELYYGMDVWGQGTTVTVSS", "VL": "not shown", "notes": "human IgG1"}, "B8": {"name": "C-20 (antibody, V domains shown)", "VH": "not shown", "VL": "EIVLTQSPGTLSLSPGERATLSCRASQSVSSSFLAWYQQKPGQAPRLLIYGASSRATGIPDRFSGSGSGTDFTLTISRLEPEDFAVYYCQQVDSYPPTFGGGTKVEIK", "notes": "human IgG1"}, "B9": {"name": "C-26 (antibody, V domains shown)", "VH": "QLQLQESGPGLVKPSETLSLTCTVSGGSISSNSYYWGWIRQPPGKGLEWIGSIYYSGSTYYNPSLKSRVTISVDTSKNQFSLKLSSVTAADTAVYYCARSPVYYDSSGYFQYYGMDVWGQGTTVTVSS", "VL": "EIVLTQSPATLSLSPGERATLSCRASQSVSSYLAWYQQKPGQAPRLLIYDASKRATGIPARFSGSGSGTDFTLTISSLEPEDFAVYYCQQSIVWPPFTFGGGTKVEIK", "notes": "human IgG1"}}, "note": "Numbering of substitutions follows the chain as printed.", "data": [{"biological_target": "T1, human CD33 (human, UniProt P20138 18-364)", "T1 sequence (P20138 18-364)": "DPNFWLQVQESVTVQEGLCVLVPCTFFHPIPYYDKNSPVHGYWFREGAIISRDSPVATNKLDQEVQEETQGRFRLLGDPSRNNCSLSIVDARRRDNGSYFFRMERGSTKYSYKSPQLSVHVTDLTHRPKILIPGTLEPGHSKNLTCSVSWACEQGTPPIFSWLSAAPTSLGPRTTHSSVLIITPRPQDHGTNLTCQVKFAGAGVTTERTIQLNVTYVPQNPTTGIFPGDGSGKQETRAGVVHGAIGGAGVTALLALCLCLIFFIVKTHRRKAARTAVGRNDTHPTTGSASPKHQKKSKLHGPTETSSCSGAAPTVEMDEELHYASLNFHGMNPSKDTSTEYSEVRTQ", "experiment": "cell-based or functional assay", "units": {"Percent CD33 Surface Expression, DC % CD33": "%", "Percent CD33 Surface Expression, Macrophage % CD33": "%", "Percent CD33 Surface Expression, Monocyte % CD33": "%"}, "values": [{"binder": "B1", "Percent CD33 Surface Expression, DC % CD33": 63.1, "Percent CD33 Surface Expression, Macrophage % CD33": 97.4, "Percent CD33 Surface Expression, Monocyte % CD33": 101}, {"binder": "B2", "Percent CD33 Surface Expression, DC % CD33": 19.5, "Percent CD33 Surface Expression, Macrophage % CD33": 62.6, "Percent CD33 Surface Expression, Monocyte % CD33": 42.4}, {"binder": "B3", "Percent CD33 Surface Expression, DC % CD33": 14.8, "Percent CD33 Surface Expression, Macrophage % CD33": 40.2, "Percent CD33 Surface Expression, Monocyte % CD33": 29.2}, {"binder": "B4", "Percent CD33 Surface Expression, DC % CD33": 22.3, "Percent CD33 Surface Expression, Macrophage % CD33": 41.9, "Percent CD33 Surface Expression, Monocyte % CD33": 35.4}, {"binder": "B5", "Percent CD33 Surface Expression, DC % CD33": 69.5, "Percent CD33 Surface Expression, Monocyte % CD33": 71.3}, {"binder": "B6", "Percent CD33 Surface Expression, DC % CD33": 17, "Percent CD33 Surface Expression, Macrophage % CD33": 42, "Percent CD33 Surface Expression, Monocyte % CD33": 32.6}, {"binder": "B7", "Percent CD33 Surface Expression, DC % CD33": 17, "Percent CD33 Surface Expression, Macrophage % CD33": 44, "Percent CD33 Surface Expression, Monocyte % CD33": 40.7}, {"binder": "B8", "Percent CD33 Surface Expression, DC % CD33": 30.2, "Percent CD33 Surface Expression, Macrophage % CD33": 54.3, "Percent CD33 Surface Expression, Monocyte % CD33": 53.9}, {"binder": "B9", "Percent CD33 Surface Expression, DC % CD33": 18.8, "Percent CD33 Surface Expression, Macrophage % CD33": 45.1, "Percent CD33 Surface Expression, Monocyte % CD33": 33}]}, {"biological_target": "T2, mouse CD33 Fc fusion protein (mouse, UniProt Q63994 18-240, limits assumed)", "T2 construct": "also called mCD33-Fc", "T2 sequence": "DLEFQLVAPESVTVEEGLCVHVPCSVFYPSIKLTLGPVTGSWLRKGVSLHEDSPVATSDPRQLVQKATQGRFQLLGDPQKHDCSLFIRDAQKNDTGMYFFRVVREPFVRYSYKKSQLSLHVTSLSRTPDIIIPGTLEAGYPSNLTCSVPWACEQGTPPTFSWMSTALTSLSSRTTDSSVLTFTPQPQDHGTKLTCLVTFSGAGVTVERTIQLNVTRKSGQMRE", "experiment": "ForteBio BLI or MSD-SET", "values": [{"binder": "B1", "binding result": "no binding (tested: 100 nM)"}, {"binder": "B2", "binding result": "no binding (tested: 100 nM)"}, {"binder": "B3", "binding result": "no binding (tested: 100 nM)"}, {"binder": "B4", "binding result": "no binding (tested: 100 nM)"}, {"binder": "B5", "binding result": "no binding (tested: 100 nM)"}, {"binder": "B6", "binding result": "no binding (tested: 100 nM)"}, {"binder": "B7", "binding result": "no binding (tested: 100 nM)"}, {"binder": "B8", "binding result": "no binding (tested: 100 nM)"}, {"binder": "B9", "binding result": "no binding (tested: 100 nM)"}]}, {"biological_target": "T3, human CD33 Fc fusion protein (human, UniProt P20138 18-259)", "T3 construct": "also called hCD33-Fc; human CD33/Fc chimera (R&D Systems)", "T3 sequence (P20138 18-259 limits assumed)": "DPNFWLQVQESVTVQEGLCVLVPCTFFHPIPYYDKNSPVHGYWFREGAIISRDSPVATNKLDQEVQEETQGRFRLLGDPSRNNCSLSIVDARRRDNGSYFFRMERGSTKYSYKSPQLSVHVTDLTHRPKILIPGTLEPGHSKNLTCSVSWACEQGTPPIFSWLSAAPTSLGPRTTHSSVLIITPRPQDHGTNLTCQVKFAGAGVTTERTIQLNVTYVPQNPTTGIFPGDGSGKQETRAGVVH", "experiment": "ForteBio BLI or MSD-SET, IgG, avid;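 also: Anti-CD33 IgG affinity by BLI, IgG captured on AHQ sensors with antigen in solution and a one-to-one kinetic fit, or by MSD solution equilibrium titration with quadratic fit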", "units": {"Kd": "nM"}, "procedure": "(§1) The binding affinity of each anti-CD33 antibody was determined by measuring their KD by ForteBio or MSD-SET. […] Briefly, ForteBio affinity measurements were performed by loading IgGs on-line onto AHQ sensors. Sensors were equilibrated off-line in assay buffer for 30 min and then monitored on-line for 60 seconds for baseline establishment. Sensors with loaded IgGs were exposed to 100 nM antigen for 5 minutes, then transferred to assay buffer for 5 min for off-rate measurement. Kinetics were analyzed using the 1:1 binding model.\n(§2) Solution equilibrium titrations (SET) were performed in PBS+0.1% IgG-Free BSA (PBSF) with antigen held constant at 50 pM and incubated with 3-to 5-fold serial dilutions of antibody starting at 10 nM. Antibodies (20 nM in PBS) were coated onto standard bind MSD-ECL plates overnight at 4° C. or at room temperature for 30 min. Plates were then blocked for 30 min with shaking at 700 rpm, followed by three washes with wash buffer (PBSF+0.05% Tween 20). SET samples were applied and incubated on the plates for 150s with shaking at 700 rpm followed by one wash. Antigen captured on a plate was detected with 250 ng/mL sulfotag-labeled streptavidin in PBSF by incubation on the plate for 3 min. The plates were washed three times with wash buffer and then read on the MSD Sector Imager 2400 instrument using 1× Read Buffer T with surfactant. The percent free antigen was plotted as a function of titrated antibody in Prism and fit to a quadratic equation to extract the KD. To improve throughput, liquid handling robots were used throughout MSD-SET experiments, including SET sample preparation.", "values": [{"binder": "B1", "Kd": 1.28}, {"binder": "B2", "Kd": 1.35}, {"binder": "B3", "Kd": 1.02}, {"binder": "B4", "Kd": 1.85}, {"binder": "B5", "Kd": 3.39}, {"binder": "B6", "Kd": 1.82}, {"binder": "B7", "Kd": 0.445}, {"binder": "B8", "Kd": 0.304}, {"binder": "B9", "Kd": 0.388}]}, {"biological_target": "T1, human CD33", "experiment": "flow cytometry, human primary T cells;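 also: binding of anti-CD33 antibodies at 10 ug/ml to human primary T cells, 1 h on ice, detected with PE-labelled secondary antibody, read as flow cytometry MFI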", "procedure": "Initial characterization of CD33 antibodies involved determining their ability to bind CD33 expressed on a CHO cell line, on human primary monocytes, human primary macrophages, human primary dendritic cells, and on human primary T cells. Cells were harvested, plated at 10⁶/ml in a 96 well plate, and incubated in 100 ul PBS containing 2% FBS, 2 mM EDTA and 10 ug/ml Mab and Fc blocking reagent for 1 hour in ice. Cells were washed twice and incubated in 100 ul PBS containing 2% FBS, 2 mM EDTA and 5 ug/ml PE-conjugated secondary antibody for 30 minutes on ice. Cells were washed twice in cold PBS and analyze by flow cytometry on a BD FACS Canto. Data analysis and calculation of MFI values was performed with FlowJo (TreeStar) software version 10.0.7.", "values": [{"binder": "B1", "T cell MFI": 35.7}, {"binder": "B2", "T cell MFI": 229}, {"binder": "B3", "T cell MFI": 402}, {"binder": "B4", "T cell MFI": 187}, {"binder": "B5", "T cell MFI": 242}, {"binder": "B6", "T cell MFI": 206}, {"binder": "B7", "T cell MFI": 207}, {"binder": "B8", "T cell MFI": 205}, {"binder": "B9", "T cell MFI": 198}]}, {"biological_target": "T1, human CD33", "experiment": "flow cytometry, human primary monocytes;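 also: binding of anti-CD33 antibodies at 10 ug/ml to human primary monocytes, 1 h on ice, detected by PE-labelled secondary antibody, flow cytometry readout as mean fluorescence intensity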", "design": "reference not given here", "values": [{"binder": "B1", "Monocyte MFI": 178}, {"binder": "B2", "Monocyte MFI": 133}, {"binder": "B3", "Monocyte MFI": 143}, {"binder": "B4", "Monocyte MFI": 139}, {"binder": "B5", "Monocyte MFI": 128}, {"binder": "B6", "Monocyte MFI": 191}, {"binder": "B7", "Monocyte MFI": 188}, {"binder": "B8", "Monocyte MFI": 196}, {"binder": "B9", "Monocyte MFI": 188}]}, {"biological_target": "T1, human CD33", "experiment": "flow cytometry, human primary macrophages;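 also: binding of CD33 antibodies at 10 µg/ml to human primary macrophages, 1 h on ice, detected with PE-labelled secondary antibody by flow cytometry, reported as MFI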", "values": [{"binder": "B1", "Macrophage MFI": 746}, {"binder": "B2", "Macrophage MFI": 711}, {"binder": "B3", "Macrophage MFI": 811}, {"binder": "B4", "Macrophage MFI": 877}, {"binder": "B5", "Macrophage MFI": 771}, {"binder": "B6", "Macrophage MFI": 883}, {"binder": "B7", "Macrophage MFI": 912}, {"binder": "B8", "Macrophage MFI": 730}, {"binder": "B9", "Macrophage MFI": 926}]}, {"biological_target": "T1, human CD33", "experiment": "flow cytometry, human primary dendritic cells;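 also: binding of anti-CD33 antibodies (10 ug/ml, 1 h on ice) to human primary dendritic cells, detected with a PE-labelled secondary antibody, reported as flow cytometry MFI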", "values": [{"binder": "B1", "DC MFI": 1120}, {"binder": "B2", "DC MFI": 1750}, {"binder": "B3", "DC MFI": 1780}, {"binder": "B4", "DC MFI": 1790}, {"binder": "B5", "DC MFI": 1050}, {"binder": "B6", "DC MFI": 2020}, {"binder": "B7", "DC MFI": 1650}, {"binder": "B8", "DC MFI": 1700}, {"binder": "B9", "DC MFI": 1960}]}, {"biological_target": "T4, human monomeric His tagged CD33 protein (human, UniProt P20138 18-259)", "T4 construct": "also called hCD33-His", "T4 sequence (P20138 18-259 limits assumed)": "as above", "experiment": "ForteBio BLI or MSD-SET, IgG, monomeric antigen;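 also: BLI: antibodies captured on AHQ sensors, 100 nM antigen association 5 min, dissociation 5 min, 1:1 fit. MSD-SET: antigen fixed at 50 pM, antibody titrated, quadratic fit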", "units": {"Kd": "nM"}, "procedure": "as §1, §2", "values": [{"binder": "B1", "Kd": 3.49}, {"binder": "B2", "Kd": 5.87}, {"binder": "B3", "Kd": 4}, {"binder": "B4", "Kd": 8.78}, {"binder": "B5", "Kd": 21.1}, {"binder": "B6", "Kd": 6.55}, {"binder": "B7", "Kd": 1.97}, {"binder": "B8", "Kd": 0.958}, {"binder": "B9", "Kd": 1.57}]}, {"biological_target": "T3, human CD33 Fc fusion protein", "experiment": "RBC adhesion to plate-bound CD33-Fc; antibody 0.5 ug/ml;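 also: Plate-coated CD33-Fc preincubated 1 h with antibody, then red blood cells added for 1 h at room temperature, adherent cells lysed and quantified via peroxidase activity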", "units": {"Percent RBC Binding to CD33": "%"}, "values": [{"binder": "B1", "Percent RBC Binding to CD33": 76.5}, {"binder": "B2", "Percent RBC Binding to CD33": 17.2}, {"binder": "B3", "Percent RBC Binding to CD33": 14}, {"binder": "B4", "Percent RBC Binding to CD33": 11.3}, {"binder": "B5", "Percent RBC Binding to CD33": 13.8}, {"binder": "B6", "Percent RBC Binding to CD33": 15.3}, {"binder": "B7", "Percent RBC Binding to CD33": 11.5}, {"binder": "B8", "Percent RBC Binding to CD33": 12.5}, {"binder": "B9", "Percent RBC Binding to CD33": 19.2}]}, {"biological_target": "T3, human CD33 Fc fusion protein", "experiment": "RBC adhesion to plate-bound CD33-Fc; antibody 1.0 ug/ml;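 also: red blood cells adhering to plate-coated CD33-Fc after 1 h antibody pretreatment, then 1 h at room temperature, bound cells read as peroxidase activity after lysis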", "units": {"Percent RBC Binding to CD33": "%"}, "values": [{"binder": "B1", "Percent RBC Binding to CD33": 80.8}, {"binder": "B2", "Percent RBC Binding to CD33": 7.69}, {"binder": "B3", "Percent RBC Binding to CD33": 9.65}, {"binder": "B4", "Percent RBC Binding to CD33": 10.1}, {"binder": "B5", "Percent RBC Binding to CD33": 8.42}, {"binder": "B6", "Percent RBC Binding to CD33": 8.77}, {"binder": "B7", "Percent RBC Binding to CD33": 9.95}, {"binder": "B8", "Percent RBC Binding to CD33": 9.4}, {"binder": "B9", "Percent RBC Binding to CD33": 15.2}]}]}
